Results taken from PMC11997328, “Structural and functional characterization of the extended-diKH domain from the antiviral endoribonuclease KHNYN”.

What was measured:
KHNYN ex-diKH [1] = biological target: T1, KHNYN ex-diKH (human, UniProt O15037 8-200); test: EMSA; 20 uM protein, 0.2 uM RNA; BLI: 20 mM Tris pH 8.0, 50 mM NaCl, 0.5 mM TCEP, 0.01% Tween 20, 8 U/ml RNasin Plus, 25 °C; EMSA: 20 mM Tris pH 8.0, 50 mM NaCl, 0.5 mM TCEP, 5% glycerol, room; details: protein: recombinant; tags: N-terminal StrepII tag removed by HRV 3C protease; label: 5'-FAM
T1 sequence (O15037 8-200): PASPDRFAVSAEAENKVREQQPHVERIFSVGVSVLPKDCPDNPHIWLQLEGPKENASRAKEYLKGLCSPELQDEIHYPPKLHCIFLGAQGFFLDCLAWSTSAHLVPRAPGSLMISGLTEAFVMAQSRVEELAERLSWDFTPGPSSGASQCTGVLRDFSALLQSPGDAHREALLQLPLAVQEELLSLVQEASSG

ZAP RBD [2] = biological target: T2, ZAP RBD (human, UniProt Q7Z2W4 1-227); test: BLI; BLI: 20 mM Tris pH 8.0, 50 mM NaCl, 0.5 mM TCEP, 0.01% Tween 20, 8 U/ml RNasin Plus, 25 °C; EMSA: 20 mM Tris pH 8.0, 50 mM NaCl, 0.5 mM TCEP, 5% glycerol, room; details: protein: recombinant; tags: N-terminal StrepII tag removed by HRV 3C protease; label: 5'-biotin
T2 sequence (Q7Z2W4 1-227): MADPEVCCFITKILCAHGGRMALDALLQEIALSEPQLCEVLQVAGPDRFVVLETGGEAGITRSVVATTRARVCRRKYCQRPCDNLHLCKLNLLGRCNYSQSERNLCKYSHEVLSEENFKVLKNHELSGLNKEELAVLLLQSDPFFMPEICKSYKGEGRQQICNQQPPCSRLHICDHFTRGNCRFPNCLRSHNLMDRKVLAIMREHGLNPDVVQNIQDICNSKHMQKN

KHNYN ex-diKH [3] = biological target: T1, KHNYN ex-diKH; test: BLI; up to 100 uM protein; BLI: 20 mM Tris pH 8.0, 50 mM NaCl, 0.5 mM TCEP, 0.01% Tween 20, 8 U/ml RNasin Plus, 25 °C; EMSA: 20 mM Tris pH 8.0, 50 mM NaCl, 0.5 mM TCEP, 5% glycerol, room; details: protein: recombinant; tags: N-terminal StrepII tag removed by HRV 3C protease; label: 5'-biotin
IMP1(KH1-KH2) = IMP1(KH1-KH2) (UniProt Q9NZI8 194-369); test: BLI; low uM affinity; value not in material; BLI: 20 mM Tris pH 8.0, 50 mM NaCl, 0.5 mM TCEP, 0.01% Tween 20, 8 U/ml RNasin Plus, 25 °C; EMSA: 20 mM Tris pH 8.0, 50 mM NaCl, 0.5 mM TCEP, 5% glycerol, room; details: protein: recombinant; label: 5'-biotin
IMP1(KH1-KH2), sequence (Q9NZI8 194-369): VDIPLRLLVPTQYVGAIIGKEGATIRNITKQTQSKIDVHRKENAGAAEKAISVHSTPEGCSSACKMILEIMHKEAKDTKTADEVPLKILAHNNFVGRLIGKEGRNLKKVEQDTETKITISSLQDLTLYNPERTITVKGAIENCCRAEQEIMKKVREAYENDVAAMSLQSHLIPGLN

ZAP RBD [4] = biological target: T2, ZAP RBD; test: EMSA; 2 uM protein, 0.2 uM RNA; BLI: 20 mM Tris pH 8.0, 50 mM NaCl, 0.5 mM TCEP, 0.01% Tween 20, 8 U/ml RNasin Plus, 25 °C; EMSA: 20 mM Tris pH 8.0, 50 mM NaCl, 0.5 mM TCEP, 5% glycerol, room; details: protein: recombinant; tags: N-terminal StrepII tag removed by HRV 3C protease; label: 5'-FAM

Row | Binder | binding result (KHNYN ex-diKH [1]) | binding result (KHNYN ex-diKH [3]) | other results
1 | AUAACAAAUACACUAAAAUACAAAUCAGAAAAU (ssRNA) [A-rich 33mer] | no binding | – | –
2 | UUCAGGU (ssRNA) [non-CpG RNA (Bi-UUCAGGU)] | – | no binding | Kd (ZAP RBD [2]): 740 nM
3 | GUAACUAAUACUCUAUUUUGUUAAUCAGAUAAU (ssRNA) [AU-rich 33mer] | no binding | – | –
4 | UUCUGUU (ssRNA) [CUG RNA (Bi-UUCUGUU)] | – | no binding | binding result (IMP1(KH1-KH2)): binds
5 | GCAACGACGACGCUAUUUUGCGCAUCAGACGCG (ssRNA) [CpG-rich 33mer] | no binding | – | binding result (ZAP RBD [4]): binds
6 | GCAACCACCACUCUAUUUUGUGCAUCAGAUGCU (ssRNA) [CpG-depleted 33mer] | no binding | – | –
7 | GUUUCUUUUACUCUUUGUUACUUUUCAGUUAAU (ssRNA) [U-rich 33mer] | no binding | – | –
8 | CUCCUCCCUACACUCCCCUCUCCCGCCGCCCCU (ssRNA) [C-rich 33mer] | no binding | – | –
9 | UAAUCGU (ssRNA) [CpG RNA (Bi-UAAUCGU)] | – | no binding | Kd (ZAP RBD [2]): 30 nM
